Assay results taken from PMC6143741.

What was measured:
Assay in all cases: MYTH quantitative β-Gal activity assay
TbMCUdΔ4 = conditions: n = 3; 8 colonies were used in each independent experiment; read off a plot
[1] = molecular target: TbMCUd without the mitochondrial targeting signal, MYTH bait or prey; conditions: n = 3; 8 colonies for each independent experiment; parent: est. 120; read off a plot
[2] = molecular target: TbMCUc without the mitochondrial targeting signal, MYTH bait or prey; conditions: n = 3; 8 colonies for each independent experiment; parent: est. 140; read off a plot
TbMCUcΔ2 = conditions: n = 3; 8 colonies were used in each independent experiment; read off a plot
TbMCUdΔ2 = conditions: n = 3; 8 colonies were used in each independent experiment; read off a plot
TbMCUdΔ3 = conditions: n = 3; 8 colonies were used in each independent experiment; read off a plot
TbMCUcΔ4 = conditions: n = 3; 8 colonies were used in each independent experiment; read off a plot
TbMCUcΔ3 = conditions: n = 3; 8 colonies were used in each independent experiment; read off a plot

Substance	response [1] [units]	response [2] [units]	other results
TbMCUd without the mitochondrial targeting signal, MYTH bait or prey MCUdΔ4: TMH1 and TMH2 each replaced by WALP (…), in bait and prey			response (TbMCUdΔ4): 15 units
TbMCU without the mitochondrial targeting signal, MYTH bait or prey TMH2 replaced by WALP (…)	45	50	
TbMCUc without the mitochondrial targeting signal, MYTH bait or prey MCUcΔ2: TMH1 replaced by WALP (…), in bait and prey			response (TbMCUcΔ2): 85 units
TbMCU without the mitochondrial targeting signal, MYTH bait or prey TMH1 replaced by WALP (…)	78	82	
TbMCUd without the mitochondrial targeting signal, MYTH bait or prey MCUdΔ2: TMH1 replaced by WALP (…), in bait and prey			response (TbMCUdΔ2): 70 units
TbMCUd without the mitochondrial targeting signal, MYTH bait or prey MCUdΔ3: TMH2 replaced by WALP (…), in bait and prey			response (TbMCUdΔ3): 52 units
TbMCU without the mitochondrial targeting signal, MYTH bait or prey Y235A; F236A; T241E; Y248A	58	65	
TbMCU without the mitochondrial targeting signal, MYTH bait or prey TMH1 and TMH2 each replaced by WALP (…)	12	15	
TbMCUc without the mitochondrial targeting signal, MYTH bait or prey MCUcΔ4: TMH1 and TMH2 each replaced by WALP (…), in bait and prey			response (TbMCUcΔ4): 20 units
TbMCUc without the mitochondrial targeting signal, MYTH bait or prey MCUcΔ3: TMH2 replaced by WALP (…), in bait and prey			response (TbMCUcΔ3): 55 units
TbMCU without the mitochondrial targeting signal, MYTH bait or prey Q213A; V216F; I217F; F222A	88	100	
